Values quoted from earlier work in paper PMC3826259.

Assays:
[1] = target: p6*-PR precursor p6*-PR (Human immunodeficiency virus 1) (UniProt O93215)
[2] = target: HIV-1 protease mature PR (Human immunodeficiency virus 1) (UniProt O93215)

| Substance | Kd [1] [nM] | Kd [2] [nM] |
| --- | --- | --- |
| p6*-PR precursor p6*-PR (from UniProt O93215) | 700 |  |
| HIV-1 protease mature PR (from UniProt O93215) |  | < 5 |
